Among the data in the supplement of paper PMC6755084 are fraction ligated values, retold here.

This data set has as its system F1*sub RNA substrate (template-directed ligation). The data set can be described thus: fraction ligated after 30 min (ligated reads / total reads); higher = more ligase activity; sequences stand for … in GAGACCGCAACTGAAAAGTTGT…AGTTCTGCACGTAGAAGCAAAAGGC
The note with it: 42 °C. Summed up: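 Ribozyme variants were transcribed with T7 from PCR-amplified oligo-pool templates and gel-purified. Ligated and unligated bands, separated on gel, were reverse transcribed with barcoded primers and sequenced on a MiSeq, with core bases filtered at quality ≥20. Fraction ligated per variant was computed as ligated reads divided by total reads.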
In the case of “TATCACTTGTGTAAGACACTGGATGGGTTGA [3d1786]”, the fraction ligated came out at 0.792.
As for TTACTTGTCGTAGACACTTTGGATGGGTTGA [3d285], the fraction ligated is 0.00592.
TATACTTGTCGTAAGAACTTTGGTGGGTTGA [3d906] registered a fraction ligated of 0.0323.
To “TATCACTTGTCGTAAGACACTTTATGGGTTG [3d2259]” belongs 0.0149.
To “TATCACTTGTCGTAAGACCTTTGGTGGGTTA [3d2198]” belongs 0.0357; to TACATTGTCGAAGACACTTTGGATGGGTTGA [3d552], 0.0671; to “TATCATTGCGAAGACACTTTGGATGGGTTGA [3d1158]”, 0.8.
Next, TACACTTGTCGAAGACACTTTGGATGGTTGA [3d656]: 0.505.
Consider “TATCATTGTCGTAAGCACTTGGATGGGTTGA [3d1240]”, for which the fraction ligated turned out to be 0.771.
Next, TATCCTGTCGTAAGAACTTTGGATGGGTTGA [3d958]: 0.803; “TATCCTTGTCGTAAACACTTTGGATGGGTTA [3d1063]”: 0.416.
Next, “TATCACTTGTCGTAGACCTTGGATGGGTTGA [3d2021]”: 0.79; TTCACTTGTCGTAAGACATTTGGTGGGTTGA [3d479]: 0.0115; “TATCATTGTCGTAAGACACTTTGGAGGGTTA [3d1287]”: 0.0162.
Next, “TATCACTTGGTAGACACTTTGGATGGGTTGA [3d1586]”: 0.829; “TATCACTTGTCGTAAGACATTGGAGGGTTGA [3d2210]”: 0.0593; “TATCACTGTCGAAGACACTTGGATGGGTTGA [3d1378]”: 0.812.
On to “TATCATTGTCGTAAGACACTTTATGGGTTGA [3d1276]”, for which the fraction ligated turned out to be 0.0281.
The sequence ATCACTTGTCGAAGACACTTGGATGGGTTGA [3d191] had a fraction ligated of 0.728.
Next, “TATCACTTGTCTAACACTTTGGATGGGTTGA [3d1824]”: 0.8; TATACTTTCGTAAGACCTTTGGATGGGTTGA [3d803]: 0.53; “TATCACTTGTCGTAAGACACTTGATGGGTTGA [2d277]”: 0.662.
To “TATCACTTGTCGAAGAACTTTGGATGGTTGA [3d1940]” belongs 0.187; to TTCACTTTCGTAAACACTTTGGATGGGTTGA [3d359], 0.0493; to “TATCACTTGTCGAAACACTTTGATGGGTTGA [3d1919]”, 0.721.
Next, TTCACTTGTCGTAAGACCTTTGATGGGTTGA [3d471]: 0.164.
The sequence “TATCACTTGTCGTAGCACTTTGGATGGGTTG [3d2012]” yielded a fraction ligated of 0.792.
Next, TACACTTGTCGAAGACACTTTGATGGGTTGA [3d653]: 0.0665; “TATCACTTGTCGAAGACATTTGATGGGTTGA [3d1951]”: 0.329.
To “TATCATTGTCGTAAGACCTTGGATGGGTTGA [3d1255]” belongs 0.804; to TAACTTGTCGTAGACACTTTGGATGGGTTGA [3d515], 0.177.
Next, ATCACTTGTCGAGACACTTTGGATGGGTTGA [3d185]: 0.757; TTCCTTTCGTAAGACACTTTGGATGGGTTGA [3d299]: 0.753; “TATCACTTGTCGTAAGCACTTTGGGGGTTGA [3d2141]”: 0.129.
Sequence “TATCCTTGTGTAAACACTTTGGATGGGTTGA [3d1003]” registered a fraction ligated of 0.8.
The sequence “TATCACTTGTCGAAGACATTTGGATGGTTGA [3d1954]” showed a fraction ligated of 0.133.
To “TATCACTTTCGTAAGACCTTTGGATGGGTTG [3d1553]” belongs 0.75; to “TATCCTTGTCGTAGACACTTTGGATGGGTTG [3d1054]”, 0.786.
To “TATCACTTGTCGTAAGACACTTTGGGGGTTGA [2d289]” belongs 0.0225; to “TATCACTTGTCGTAAGACCTTTGGATGGGTTA [2d267]”, 0.788; to “TATCACTTGTCTAGACATTTGGATGGGTTGA [3d1828]”, 0.814.
Next, TTCACTGTCGTAAGACATTTGGATGGGTTGA [3d347]: 0.755; “TATCACTTTCGAAGACCTTTGGATGGGTTGA [3d1497]”: 0.765; “TATCACTTGTCGTAAAACTTGGATGGGTTGA [3d2060]”: 0.782.
In turn, ATCACTTTCGTAAGACACTTGGATGGGTTGA [3d133] had a fraction ligated of 0.748.
To TTCACTTGCTAAGACACTTTGGATGGGTTGA [3d372] belongs 0.729; to TACATTGTCTAAGACACTTTGGATGGGTTGA [3d551], 0.0666.
Next, “TATCCTTGTCGTAAGACCTTGGATGGGTTGA [3d1083]”: 0.756; “TATCACTTGGTAAGACACTTTGGATGGGTTG [3d1598]”: 0.809; ATCACGTCGTAAGACACTTTGGATGGGTTGA [3d105]: 0.749.
For “TATCACTGTCGTAAGACCTTTGGATGGGTTA [3d1431]”, the fraction ligated amounted to 0.808.
To “TATCACTGTCGTAAGACATTTGGTGGGTTGA [3d1435]” belongs 0.752; to “TATCACTTGTCGTAAGACATTTGATGGGTTGA [2d270]”, 0.291.
To TATACTTGTCGTAAACATTTGGATGGGTTGA [3d885] belongs 0.78.
The sequence TACACTTGTCGTAAGACATTTGATGGGTTGA [3d708] came in with a fraction ligated of 0.0186.
To “TATCACGTCTAAGACACTTTGGATGGGTTGA [3d1296]” belongs 0.772.
To TATACTTTCGTAGACACTTTGGATGGGTTGA [3d799] belongs 0.268; to “TATCACTTGTGTAAGACATTTGGATGGTTGA [3d1783]”, 0.169; to “TATCACTTGTCGTAAACACTTGGATGGTTGA [3d2085]”, 0.105.
To “TATCACTGCGTAAGACACTTTGATGGGTTGA [3d1337]” belongs 0.763.
Consider TTCACTTGTCGTAAGACACTTTGATGGGTTA [3d495], for which the fraction ligated was 0.0395.
Next, “TATCACTTGTGTAAGACACTTTGGATGGGTTA [2d192]”: 0.823; TTCACTTGTCGTAAACACTTTGGATGGGTTG [3d451]: 0.177; “TATCACTTTCGTAAGACCTTTGGAGGGTTGA [3d1550]”: 0.0285.
Next, “TATCACTTTCGTAAGACACTTGATGGGTTGA [3d1562]”: 0.787; TATACTTGGTAAGACACTTTGGATGGGTTGA [3d812]: 0.653; “TATCACTTGTCTAAGACTTTGGATGGGTTGA [3d1846]”: 0.786.
To ATCACTTGTCGTAAGACACTGGATGGGTTGA [3d253] belongs 0.701.
“TATCACTTGTCGTAAGCACTTTGGAGGTTGA [3d2145]” showed a fraction ligated of 0.143.
To “TATCCTTGTCTAAGACCTTTGGATGGGTTGA [3d1020]” belongs 0.786.
Next, “TATCACTTGTGTAAGACACTTTGGGGGTTGA [3d1799]”: 0.0501.
“TATCACTTTCGTAAGACACTTTGGATGGTTG [3d1582]” displayed a fraction ligated of 0.0551.
To ATCACTTGTCGTAAGACACTTTGGATGGGTT [3d275] belongs 0.392; to TATCTTGTCGTAAGAACTTTGGATGGGTTGA [3d748], 0.841; to TACACTTGTCGTAAGACACTTGATGGGTTGA [3d715], 0.0512.
To TATACTTGTCGTAAGACACTTTGGATGGTTA [3d945] belongs 0.0396; to “TATCACTTGTCGTAAGACACTTTGGTGGTTGA [2d290]”, 0.0232; to “TATCACTGTCTAAGACACTTTGGATGGGTTGA [2d132]”, 0.818.
Next, TTCACTTGTGTAAGACCTTTGGATGGGTTGA [3d393]: 0.548.
Turning to “TATCACTTGTCGTAAGACATTGGATGGTTGA [3d2211]”, the fraction ligated was found to be 0.0757.
To “TATCACTTGTCGTAAACACTTGGATGGGTTA [3d2086]” belongs 0.492; to “TATCACTTGTCGTAAGAACTTGGATGGGTTGA [2d255]”, 0.805; to “TATCATTGTCGTAAACACTTTGATGGGTTGA [3d1231]”, 0.597.
Next, TATACTTGTCGTAAGACACTTGGTGGGTTGA [3d927]: 0.049.
To TATCCTGTCGTAAGACACTTTGGATGGGTTG [3d967] belongs 0.76; to “TATCACGTCGTAAGACACTTGGATGGGTTGA [3d1304]”, 0.81.
In turn, TACACTTGTCGTAAGACACTTTGAGGGTTGA [3d723] yielded a fraction ligated of 0.0442.
To “TATCACTTGTCGTAGACATTTGGATGGGTTG [3d2034]” belongs 0.815; to TATACTTGTGTAAGACACTTTGGATGGTTGA [3d840], 0.109.
To TACACTGTCGTAGACACTTTGGATGGGTTGA [3d572] belongs 0.322; to TATACTTGTCTAAGACACTTTGGATGGGTTA [3d855], 0.0424; to TACACTTGCGTAAGACACTTGGATGGGTTGA [3d610], 0.0197.
To “TATCCTTGTCGTAAGACCTTTGGAGGGTTGA [3d1086]” belongs 0.0073.
“TATCACTTTCGAAGCACTTTGGATGGGTTGA [3d1495]” yielded a fraction ligated of 0.766.
To “TATCACTGTCGTAGACACTTTGGATGGGTTA [3d1396]” belongs 0.791.
For “TATCCTTGTCGTAAGCCTTTGGATGGGTTGA [3d1066]”, the fraction ligated was found to be 0.75.
The sequence “TATCACTTGTCGTAAGACACTTGGAGGGTTG [3d2250]” came in with a fraction ligated of 0.00522.
